The target in experiment [1] is 10E8 unmutated common ancestor antibody. Description: SPR. The settings on record: chain shown with the change;; read off a plot.
Experiment [2] addresses 10E8-iGL3 antibody (fully germline-reverted 10E8). Description: SPR. The following applies: chain shown with the change;; read off a plot.

As a reminder, the Kd is the equilibrium constant for the complex coming apart.

B1: MPER (scaffold without germline-targeting mutations) 10E8-GT11 (substitutions not printed in the panel; sequence in Extended Data Fig. 1h) (protein)
chain: VTQEDIIRALASPLIKDGMVDEDFAEKVIEQESRYPTGLQAKGVGVAIPHTLGDYVRDNAISVGILDKPVNFEGWYQSPDPVPVRVVFMLAIRTWDDIVNVLNWIKDVILDEEFMKRLLTMSDEEIYRQIYTRISKAPQLSGIHFKREYVRHLG
As for B1, the Kd came out at 1400 nM in experiment [1] and 20000 nM in experiment [2].

B2: MPER (scaffold without germline-targeting mutations) 10E8-GT12 (substitutions not printed in the panel; sequence in Extended Data Fig. 1h) (protein)
chain: ETGNVTQEDIIRALASPLIKDGMVDEDFAEKVIENESRYPSGLQAKGVGFAIPHVLGDYVRDNAISVGILDKPVNFSEWYQSPDPVPVRVVFMLAIRTWDDITNVMNWIKDVVLDEEFMKRLLNMSDEEIYRQIYTRISKAPNLSGINFSREYVRHLNGS
As to B2, the values for the Kd in experiment [1] and in experiment [2] were 180 nM and 1800 nM, respectively.

B3: 10E8-GT9.2 epitope scaffold P41Q (protein)
chain: EVTQEDIIRALASPLIKDGMVDEDFAEYVIEREKRSPTGLQVKGVGVAIPHTLGEYVRDNAISVGILDKPVNFEGWYQSPDPVPVRVVFMLAGRTWDDIVNVLKWIKDVILDEEFMKRLLTMSDEEIYRQIYTRISKAPGMRGIHFKREYVRHLG
For B3, in experiment [2], the Kd amounted to 8000 nM.

B4: MPER (scaffold without germline-targeting mutations) 10E8-GT10.2 (substitutions not printed in the panel; sequence in Extended Data Fig. 1h) (protein)
chain: NVTQEDIIRALASPLIKDGMVDEDFAEYVIARENRSPTGLQAKGVGVAIPHTLGDYVRDNAISVGILDKPVNFSGWYQSPDPVPVRVVFMLAGRTWDDIVIVLKWIKDVILDEEFMKRLLNMSDEEIYRQIYTRISKAPNLSGINFSREYVRHLN
On to B4, for which the Kd in experiment [1] was 38 nM; in experiment [2], 11000 nM.

(Values after publication PMC11147780.)
